Laboratory results reported in US20230374088A1 (GENERAL HOSPITAL, published 2023).
Changes are numbered by the printed parent chain. Names may count otherwise.

T1: c-Myc-Gli2 (418-594aa) ZF2-mut (H493A, R496A) (human, UniProt P10070 418-594)
T1 construct: also called Gli2 ZF-2 (H493A/R496A); not shown: c-myc tag from pCMV-BICEP-4 (MCS2)
T1 sequence (looked up): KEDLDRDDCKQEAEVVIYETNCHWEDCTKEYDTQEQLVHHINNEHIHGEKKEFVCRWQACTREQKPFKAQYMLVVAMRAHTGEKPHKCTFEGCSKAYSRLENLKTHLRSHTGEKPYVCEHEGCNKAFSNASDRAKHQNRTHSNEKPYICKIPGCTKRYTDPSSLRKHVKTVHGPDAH

T2: c-Myc-Gli2 (418-594aa) ZF3-mut (H503A, R516A, K521A) (human, UniProt P10070 418-594)
T2 construct: also called ZF-3 (H503A/R516A/K521A); not shown: c-myc tag from pCMV-BICEP-4 (MCS2)
T2 sequence (looked up): T1 sequence (looked up) with A76H, A79R, H86A, R99A, K104A

T3: c-Myc-Gli2 (418-594aa) (human, UniProt P10070 418-594)
T3 construct: Expressed in Expi293F cells for the pull-down; also called Gli2-ZF (in the pull-down); not shown: c-myc tag from pCMV-BICEP-4 (MCS2), N-terminal by the name
T3 sequence (looked up): T1 sequence (looked up) with A76H, A79R

B1: FLAG-Kif7-CC (460-600aa) (other)
chain: PDSGIESASVEDQAAQGAGGRKEDEGAQQLLTLQNQVARLEEENRDFLAALEDAMEQYKLQSDRLREQQEEMVELRLRLELVRPGWGGPRLLNGLPPGSFVPRPHTAPLGGAHAHVLGMVPPACLPGDEVGSEQRGEQVTN
notes: Expressed in Expi293F cells for the pull-down; also called Kif7(460-600aa); not shown: FLAG tag from pCMV-BICEP-4 (MCS1), N-terminal by the name
B2: FLAG-Kif7-CC (460-600aa) S1-mut (E500A, E501A, E502A, D505A) (other)
chain: B1 chain with E41A, E42A, E43A, D46A
notes: also called Kif7-CC S1; not shown: FLAG tag from pCMV-BICEP-4 (MCS1)

Tests used:
Test in all cases: pull-down on anti-FLAG beads, anti-c-myc blot, Expi293F cells
[1] = target: T1, c-Myc-Gli2 (418-594aa) ZF2-mut (H493A, …)
Source text: (§1) Immunoprecipitation (IP) using anti-FLAG magnetic beads. Input (cell lysate), FT (flow through), wash and beads samples were immunoblotted (IB) with anti c-Myc antibody to detect Gli2. […] The blots are representative images of a minimum of three repeats. Gli2-ZF mutants are as follows: ZF2-mut (H493A, R496A), ZF3-mut (H503A, R516A, K521A), ZF4-mut (R550A, K552A, R556A). Kif7-CC mutants are as follows: S1-mut (E500A, E501A, E502A, D505A), S2-mut (E511A, E515A), S3-mut1 (E526A, E529A) and S3-mut2 (E530A, R535A).
(§2) To narrow down the residues that participate in binding, we analyzed the model of the Kif7-SCC:Gli2-ZF complex using PDBsum server (De Beer et al., Nucleic acids research, 42, D292-D296, 2014). We performed alanine scanning mutagenesis of the charged residues on Gli2-ZF that came up as part of the binding interface in the PDBsum analysis and analyzed their binding with pull-down assay (FIG. 3D). […] We systematically mutated the residues to alanine and performed the pull-down assay with Gli2-ZF.

[2] = target: T2, c-Myc-Gli2 (418-594aa) ZF3-mut (H503A, …)
Source text: as §1, §2

c-Myc-Gli2 (418-594aa) = target: T3, c-Myc-Gli2 (418-594aa)
Source text: as §1, §2

binding result [1]	binding result [2]	binding result (c-Myc-Gli2 (418-594aa))	Binder
no binding	no binding		B1
		no binding	B2
